Results on two molecules are retold here after patent US20140205611A1 (EVEC, published 2014).

Assay [1] deals with T1, recombinant hGM-CSF derived from yeast (Leukine, Berlex) (human, UniProt P04141 18-144).
T1 construct: Bought product; also called yeast hGM-CSF (Leukine); yeast GM-CSF (Leukine)
Put plainly: SPR (Biacore), antibody captured via immobilised protein G, rhGM-CSF injected. How it is done: To calculate affinity constants for recombinant hGM-CSF binding to anti-hGM-CSF monoclonal antibodies, surface plasmon resonance (SPR) was performed on a Biacore System™ (FIG. 2).
In the method to analyze the interaction between antibodies and antigens, the purified antibodies were captured on a sensor chip via interaction with protein G immobilized to sensor chip surface, and then recombinant antigens were injected to the sensor chip. Purified antibodies were used and recombinant hGM-CSF was used as an antigen.
For orientation: SPR reads the build-up and loss of mass on a sensor chip optically.

Assay [2] concerns the target recombinant hGM-CSF expressed in E. coli (Fa. Biomol #2514) (human, UniProt P04141 18-144). Put plainly: cell-based or functional assay.

recombinant hGM-CSF expressed in E. coli (Fa. Biomol #2514), sequence (P04141 18-144 limits assumed): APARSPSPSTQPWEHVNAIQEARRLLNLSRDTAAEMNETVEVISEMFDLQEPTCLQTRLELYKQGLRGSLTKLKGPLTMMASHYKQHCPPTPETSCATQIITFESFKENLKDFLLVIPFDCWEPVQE
T1 sequence (P04141 other isoform, or with tags, fused parts or gaps limits assumed): as the sequence (P04141 18-144 limits assumed) above, with R23L counted along it

B1: EV1019 (antibody, human IgG1, lambda, V domains shown)
VH: QAQLVESGGGVVKPGGSLRLSCISSKFTFSSHAMHWVRQAPGKGLEWVAVIWHDGSKKYYADSVKGRFSVSRDNSKNTLFLQMDSLRAEDTAVYFCGKEWVGGTCDSWGQGTLVIVSS
VL: QPALTQEASVSGTVGQTVTLLCSGNSSNIGSYAVGWYQQISRGAPKIVVFGKSPASGIPDRFSGSKSGTTASLLVSGLQPEDEADYYCSTWDSRLSAVLFGGGTKLTVLR
notes: also called EV1019 Batch 1; EV1019 Batch 2
The Kd is the constant that tells how readily two partners part at equilibrium. As for B1, the Kd in assay [1] was found to be 0.36 nM.

B2: EV1018 (antibody, human IgG1, lambda)
heavy: not shown
light: QSALTQETSVSGTVGQKVTLSCIGNNNNIGSHAVGWYQQISRGAPKMVLFGRSPPSGVPDRFSGSKSGTTASLIISGLQPEDEADYYCSTWDSSLSAVVFGGGTKLTVLRQPKAAPSVTLFPPSSEELQANKATLVCLISDFYPGAVTVAWKADSSPVKAGVETTTPSKQSNNKYAASSYLSLTPEQWKSHRSYSCQVTHEGSTVEKTVAPTECS
notes: also called wild-type EV1018; WT EV1018
On to B2, for which, in assay [1], the Kd amounted to 0.23 nM. For the same molecule, in assay [2], the “IC50 in TF-1 assay, hGM-CSF (E. coli) at 1.0 ng/ml final concentration” value is 0.02 nM and the “Ratio: Reference antibody to antibody of interest (IC50 of BVD2-21C11 over IC50 of EV1018, TF-1 assay)” value worked out at 413.
